Laboratory results from patent US20050079503A1, “Binding domain of Siah (seven in absentia homolog) protein” (PETER MacCALLUM CANCER INSTITUTE, ST. VINCENT'S INSTITUTE …, priority 2001, published 2005).
*: point of attachment. Biotin = O=C1N[C@H]2[C@H](CS[C@H]2CCCCC(=O)*)N1

T1: Siah (Mus musculus, UniProt P61092)
T1 construct: made in house; host or cells: bacteria
T1 sequence (P61092 1-282): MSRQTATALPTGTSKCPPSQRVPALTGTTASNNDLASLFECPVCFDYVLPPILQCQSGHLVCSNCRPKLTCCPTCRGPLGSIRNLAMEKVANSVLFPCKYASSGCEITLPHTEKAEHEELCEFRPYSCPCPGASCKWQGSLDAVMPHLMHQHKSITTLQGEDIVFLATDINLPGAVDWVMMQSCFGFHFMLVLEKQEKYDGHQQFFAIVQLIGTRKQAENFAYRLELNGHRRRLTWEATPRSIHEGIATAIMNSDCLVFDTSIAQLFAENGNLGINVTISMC

T2: MBP-Siah1a-ZC fusion protein (mouse, UniProt P61092 80-282)
T2 construct: range 80-282; ZC = zinc fingers plus C-terminus, residues 80-282 of Siah1a, fused to MBP; also called Siah SBD; not shown: linker not described
T2 sequence (looked up): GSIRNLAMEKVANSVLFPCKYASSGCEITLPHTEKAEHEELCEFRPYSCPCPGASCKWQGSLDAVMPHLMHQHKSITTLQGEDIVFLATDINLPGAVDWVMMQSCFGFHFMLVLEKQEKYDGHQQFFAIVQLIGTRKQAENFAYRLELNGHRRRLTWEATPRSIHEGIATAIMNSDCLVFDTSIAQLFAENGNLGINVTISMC

T3: GST-PHYL108-130 (Drosophila)
T3 construct: also called PHYL peptide as a fusion protein with glutathione-S-transferase; not shown: glutathione-S-transferase (GST) fusion partner
T3 chain: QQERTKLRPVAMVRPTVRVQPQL


How the values were obtained:
Siah = target: T1, Siah; assay: Interaction studies using bacterially expressed proteins; type: binding
Excerpt: PHYL is known to interact and function with SINA, the Drosophila orthologue of mammalian Siah, in the targeted degradation of the transcriptional repressor tramtrack 88 (TTK88). Applicants have shown that it interacts similarly with mammalian Siah.

[1] = target: T2, MBP-Siah1a-ZC fusion protein; assay: ELISA: biotinylated plectin peptide captured on Neutravidin-coated plate, bound MBP fusion detected with anti-MBP and HRP antibody, ABTS, A405
Procedure: Siah SBD binding to the plectin peptide (Biotin-[…]-NH2 corresponding to residues 95-117 of human plectin) was assessed by capturing biotinylated peptide on a 96-well plate coated with 0.5 μg Neutravidin per well. Peptide was captured for 30 min at room temperature at a concentration of 4 μg/ml. MBP-Siah1a-ZC fusion protein was bound to the peptide for 50 min at room temperature (or the controls of buffer alone (PBS/tween 20) or mutant MBP-Siah1a-ZC containing a Leu211 to Arg mutation). Bound protein was quantitated by rabbit anti-MBP antibody (1:300 dilution), then HRP conjugated goat-anti-rabbit antibody. Detection utilised ABTS substrate read at A405.

[2] = target: the molecule itself; assay: size exclusion chromatography (self-association of the Siah1a binding domain)
GST-PHYL108-130 = target: T3, GST-PHYL108-130; assay: complex isolated by gel filtration on Superdex 200, components quantitated by N-terminal sequencing (five cycles)
Excerpt: The stoichiometry of interaction was investigated by isolating a complex of GST-PHYL108-130 and Siah1a SBD by gel filtration on Superdex 200 and quantitating the components by N-terminal sequencing.

Molecule | affinity of interaction with Siah (in words) (Siah) | other results
SIP: Siah-interacting protein (SIP) (protein, UniProt Q9HB71 2-228, looked up) Calcyclin-binding protein: ASEELQKDLEEVKVLLEKATRKRVRDALTAEKSKIETEIKNKMQQKSQKKAELLDNEKPAAVVAPITTGYTVKISNYGWDQSDKFVKIYITLTGVHQVPTENVQVHFTERSFDLLVKNLNGKSYSMIVNNLLKPISVEGSSKKVKTDTVLILCRKKVENTRWDYLTQVEKECKEKEKPSYDTETDPSEGLMNVLKKIYEDGDDDMKRTINKAWVESREKQAKGDTEF | lower affinity | 
OBF-1: Oct-binding factor 1 (OBF-1) (protein, UniProt Q16633 1-256, looked up) POU domain class …: MLWQKPTAPEQAPAPARPYQGVRVKEPVKELLRRKRGHASSGAAPAPTAVVLPHQPLATYTTVGPSCLDMEGSVSAVTEEAALCAGWLSQPTPATLQPLAPWTPYTEYVPHEAVSCPYSADMYVQPVCPSYTVVGPSSVLTYASPPLITNVTTRSSATPAVGPPLEGPEHQAPLTYFPWPQPLSTLPTSTLQYQPPAPALPGPQFVQLPISIPEPVLQDMEDPRRAASSLTIDKLLLEEEDSDAYALNHTLSVEGF | lower affinity | 
Kid: kinesin-like DNA-binding protein (Kid) (protein, UniProt Q14807 1-665, looked up) Kinesin-like protein KIF22: MAAGGSTQQRRREMAAASAAAISGAGRCRLSKIGATRRPPPARVRVAVRLRPFVDGTAGASDPPCVRGMDSCSLEIANWRNHQETLKYQFDAFYGERSTQQDIYAGSVQPILRHLLEGQNASVLAYGPTGAGKTHTMLGSPEQPGVIPRALMDLLQLTREEGAEGRPWALSVTMSYLEIYQEKVLDLLDPASGDLVIREDCRGNILIPGLSQKPISSFADFERHFLPASRNRTVGATRLNQRSSRSHAVLLVKVDQRERLAPFRQREGKLYLIDLAGSEDNRRTGNKGLRLKESGAINTSLFVLGKVVDALNQGLPRVPYRDSKLTRLLQDSLGGSAHSILIANIAPERRFYLDTVSALNFAARSKEVINRPFTNESLQPHALGPVKLSQKELLGPPEAKRARGPEEEEIGSPEPMAAPASASQKLSPLQKLSSMDPAMLERLLSLDRLLASQGSQGAPLLSTPKRERMVLMKTVEEKDLEIERLKTKQKELEAKMLAQKAEEKENHCPTMLRPLSHRTVTGAKPLKKAVVMPLQLIQEQAASPNAEIHILKNKGRKRKLESLDALEPEEKAEDCWELQISPELLAHGRQKILDLLNEGSARDLRSLQRIGPKKAQLIVGWRELHGPFSQVEDLERVEGITGKQMESFLKANILGLAAGQRCGAS | lower affinity | 
Biotin-ASLQRVRRPVAMVMPARRTPHVQ-NH2 (SMILES CSCC[C@H](NC(=O)[C@H](C)NC(=O)[C@@H](NC(=O)[C@@H]1CCCN1C(=O)[C@H](CCCNC(=N)N)NC(=O)[C@H](CCCNC(=N)N)NC(=O)[C@@H](NC(=O)[C@H](CCCNC(=N)N)NC(=O)[C@H](CCC(N)=O)NC(=O)[C@H](CC(C)C)NC(=O)[C@H](CO)NC(=O)[C@H](C)NC(=O)CCCC[C@@H]1SC[C@@H]2NC(=O)N[C@@H]21)C(C)C)C(C)C)C(=O)N[C@H](C(=O)N[C@@H](CCSC)C(=O)N1CCC[C@H]1C(=O)N[C@@H](C)C(=O)N[C@@H](CCCNC(=N)N)C(=O)N[C@@H](CCCNC(=N)N)C(=O)N[C@H](C(=O)N1CCC[C@H]1C(=O)N[C@@H](Cc1c[nH]cn1)C(=O)N[C@H](C(=O)N[C@@H](CCC(N)=O)C(N)=O)C(C)C)[C@@H](C)O)C(C)C, also called synthetic peptide corresponding to residues 95-117 of human plectin) [plectin peptide (Biotin-ASLQRVRRPVAMVMPARRTPHVQ-NH2)] |  | binding result [1]: binds
Siah1a binding domain (purified tryptic fragment) (other, mouse, UniProt P61092 90-282, looked up, two 2-mercaptoethanol adducts on cysteines in the purified form (21,838 Da; 21,685 Da when reduced), Dimer by size exclusion chromatography and in the crystal; Start residue must be found by locating VANSV on Siah1a; also called Siah1a SBD) VANSVLFPCKYASSGCEITLPHTEKAEHEELCEFRPYSCPCPGASCKWQGSLDAVMPHLMHQHKSITTLQGEDIVFLATDINLPGAVDWVMMQSCFGFHFMLVLEKQEKYDGHQQFFAIVQLIGTRKQAENFAYRLELNGHRRRLTWEATPRSIHEGIATAIMNSDCLVFDTSIAQLFAENGNLGINVTISMC |  | binding result [2]: binds; average ratio of Siah binding domain to GST-PHYL108-130 residues (stoichiometry) (GST-PHYL108-130): 2.34 mol/mol
